Reference: PMC3322178 (Biochemistry, 2009)
Like-named read-outs stand apart in the source and are kept apart here. Values belong to the molecule of their own block, whether it stands above or below them.

Tests used:
ASF/SF2 (Homo sapiens) = ASF/SF2 (Homo sapiens) (UniProt Q07955); settings: cited from earlier work
[1] = target: T1, His-SRPK1(FL), full length SR protein kinase 1 (UniProt Q96SB4 1-655); assay: pull-down
[2] = target: T1, His-SRPK1(FL), full length SR protein …; assay: pull-down; remark: listed apart in the source

binding result [2]: binds
B4: GST-ASF(RRM2)-R154A (domain or fragment, human, UniProt Q07955 105-196, looked up)
chain: GGAPRGRYGPPSRRSENRVVVSGLPPSGSWQDLKDHMREAGDVCYADVYADGTGVVEFVRKEDMTYAVRKLDNTKFRSHEGETAYIRVKVDG

binding result [2]: binds
B5: GST-ASF(RS), ASF/SF2 RS domain residues 183-248 (domain or fragment, human, UniProt Q07955 183-248, looked up)
chain: HEGETAYIRVKVDGPRSPSYGRSRSRSRSRSRSRSRSNSRSRSYSPRRSRGSPRYSPRHSRSRSRT

More lines, now with the values behind:

Molecule: SRPK1 (from UniProt Q96SB4)
Kd (ASF/SF2 (Homo sapiens)): 0.05 µM

B1: GST-ASF(RRM2)-Q135A (domain or fragment, human, UniProt Q07955 105-196, looked up)
chain: GGAPRGRYGPPSRRSENRVVVSGLPPSGSWADLKDHMREAGDVCYADVYRDGTGVVEFVRKEDMTYAVRKLDNTKFRSHEGETAYIRVKVDG
binding result [1]: binds

B2: GST-ASF(RRM2)-W134A (domain or fragment, human, UniProt Q07955 105-196, looked up)
chain: GGAPRGRYGPPSRRSENRVVVSGLPPSGSAQDLKDHMREAGDVCYADVYRDGTGVVEFVRKEDMTYAVRKLDNTKFRSHEGETAYIRVKVDG
binding result [1]: binds

B3: GST-ASFΔβ4ΔRS (residues 1-179) (domain or fragment, human, UniProt Q07955 1-179, looked up)
chain: MSGGGVIRGPAGNNDCRIYVGNLPPDIRTKDIEDVFYKYGAIRDIDLKNRRGGPPFAFVEFEDPRDAEDAVYGRDGYDYDGYRLRVEFPRSGRGTGRGGGGGGGGGAPRGRYGPPSRRSENRVVVSGLPPSGSWQDLKDHMREAGDVCYADVYRDGTGVVEFVRKEDMTYAVRKLDNTK
binding result [1]: binds
